Assay: soluble on expression in E. coli; label from the status in PepcDB or PDB records

| Sequence | soluble on expression in E. coli |
| --- | --- |
| GPGSMPERCIGITTVQVGHIVGRGGSTLKGIQERTGATLCIVENGLQVKITADDAAKVAAAEAEVHKIVASQQNPDYEGPCGARLRKEAVELGQKRSKLFEEATRMREAGDHEGANKLVAMAKKAGEDMKARHREAALAIAKHNNEEKGKGPNYFDMHGLHLEEAMEMLKVRMSKLEEKPVGSTTAFEVIPGAGHHSAPGTQKLKRATLEYVQWKGYPCEEVNAGAFLVKVPGLGEGVLSKPEDGDKVPTKPKESATGVANKPKASGSAAASKSKAQSCCACM | soluble |
| MAEKKKEEKESKETEVFILKLENTTVTFTNPKLGDEVTIASLNLTNPTKDRYAFKIKCTSNQLFKIKSPVGYINPEESLTIPVYHYPATVIPENNKHYFVVYYIKAANTVKEKIPVRDLWKAAASSEGTRRVFIDFKKPELPPTEAEDGKMGDDKKKGKKDDKKEEKDGKKDEKKDGSDEEGKKDEGKGEKKEEKKDDKKDDKKDDKKEEKKEDGAKK | soluble |
| MAHHHHHHMEEQVDLEKALAVAIKAAQSAGNIMLEFYQLRREDTAAKMMRLLKEGGSHTTGELAASPKPTPVDLLDIKTKSSSTDLVTHYDKLCDETIMKILQRFNAKVEDEKRNEPSEAFSFQFITEELTPDTPLTDEPTWIVDPIDGTMSFVHGGCDCCISIGLAIKKQTVLAVVYCPFLSIVQHSVEDLRSTSAVAGELYTAIRGKGTFLNGQPIRVSADALPNTALVAFNYPMGARLSAAEIPSDSAQVGVLKRQKHRKVVEAAGHIREQLAMHPVQGIRSYGSCALILAQVAAGRIDLYMEPAGMVWDVCAGSLLITEAGGVVKNMWGGDFGLEGTTTIIAAANETLADYGIQLCTQVNYGDYWKK | soluble |
| MNTEICSILERQARIFNVQKYSLYDGPGIRTLIFFKGCPLRCKWCSNPEGLERKYQVMYMEDSCIHCGNCIPVCPVNIHSFANRDGETVPTHYEPPKHTINRNIDCVGCRKCETICPKKALSIAGKDLKISEVLEIIQQDALFYLSSGGGVTLGGGEVTAQPEFATNLLMECQRMGINTAIETCGYAKLDTLLMIAQFTDLFLYDLKHIDPERHYELTGVRNERILDNLTELIHRGFNIKIRMPLIRGMNDSQDTIRRTMEFLQPFSSCKNFQGIDLLPYHKLGINKYKQLDMNYTITEDLSFKAEELDEIARIIGGYDLRAAVIRH | not soluble |
| MDDNQIINLFFQRNEDAINAVDEKYGSKLNALAANILQSREDGLECVNDMYMKAWNSIPPARPEYLFAFLATSARNIAIDMIRKNNAGKRQAKVVELTKELEECIGDGGLQTHLDKEDIGEMLSHFLETVDKNKRIIFLRRYWYSDSIKDISERMQMSESAVKVTLHRTRKELRKYLESEGLYL | not soluble |
| NTQLNIKMQPDTQTLDEVVVIGYGTVKKRDLTGAVASVKSEDIVRMPTSNVLEAIQGQVAGLDITRSSGEAGSGVNMTLRGTRSINGDNSPLFIIDGMEGSYDELNPNDIASIEVLKDASSTAVYGAAGANGVIIITTKTPKKDK | not soluble |
| TDSTGIDLHEFLVNTLKKNPRDRMMLLKLEQEILEFINDNNNQFKKFPQMTSYHRMLLHRVAAYFGMDHNVDQTGKAVIINKTSNTRIPEQRFSEHIKDEKNTEFQQRFIL | soluble |
| MELQEVLRMNGGEGDTSYAKNSAYNQLVLAKVKPVLEQCVRELLRANLPNINKCIKVADLGCASGPNTLLTVRDIVQSIDKVGQEKKNELERPTIQIFLNDLFPNDFNSVFKLLPSFYRKLEKENGRKIGSCLIGAMPGSFYSRLFPEESMHFLHSCYCLQWLSQVPSGLVTELGIGTNKGSIYSSKASRLPVQKAYLDQFTKDFTTFLRIHSEELFSHGRMLLTCICKGVELDARNAIDLLEMAINDLVVEGHLEEEKLDSFNLPVYIPSAEEVKCIVEEEGSFEILYLETFKVLYDAGFSIDDEHIKAEYVASSVRAVYEPILASHFGEAIIPDIFHRFAKHAAKVLPLGKGFYNNLIISLAKKPEKSDM | soluble |
| MEMEHINENTIRVLIGNEDLADRGITFLDLLGNHKDVENFFYSILEEVDVEDEFQGSEAVTFQVLPKNDGLELFISKNVAMDDLSSLEGLSEVNADVSELIRKQIEADKAAADELDEMEATDETNRNVIFELDNFEAMIQLSKEVFMQSVLTNLYTYNDRYYLQVLFLTDELEKTNVDNEIAQILEFAHKTTVTQDTLVEYGTCIMERSALELTRYYFND | not soluble |
| MGSDKIHHHHHHMKHGGFSAASEAENISKSKLSRRIIDLENKFNVSLIQRTTRHFKVTDLGQEFYEECCKVIAQVECAENVLLKQKSEPQGLVKVSCPPLMMHFQIRKILNQFLKTYPKVEISLELTSRRVDILHDDIDLAIRTNFEPNEDSNLIVRDVIKTDHCLVASPELLQGRTIKHYSELQDFPSISLGTQKQNYIWHLCNIRNGESVDVPYQPRIKSNDLAGVYYAVMDGLGIADLPFLTVESEIRKGTLVHILPDWKSNIGMLQLVYVSRKGQRLVVEKLIETLIDELRRLPESHEGYLPT | not soluble |
| MSSGKDFFVHSHALCESENIGKDSRVWAFAHILPGARLGSECNVCDNVFIENDVIIGDRVTLKCGVQVWDGITIEDDVFIGPNATFTNDLFPRSKVYPQTFARTIIRKGASLGANCTILPGITIGINAMVGAGAVVTRSVPPNAIVVGNPAKIIGYVDAKPVNANSETRAEQKAPGVTATSVKNVTLHTMNEVADIRGSLSAGEFERSVPFKTERYFLVYDVPTAETRGEHAHRICHQFLVAVKGSVHVVADDGVNREEFILDKPNQGIHLPPMTWGIQYRYSQDAVLLVFASHYYDAGDYIRNYEEFKSLIANAELEHHHHHH | soluble |
| MGSDKIHHHHHHSRSGEKAAQQLVDYFIYQEKPETFSQTFREPKVLAEHLQTSRQQFQKQFFNSLKEMNAEVTETEAQKLSAELLAQVKKKASYQLVATKELNGQATITFQIKGLDFVTAIEDTTTALLQQTQQATQALDMQHTLAVLKKEIQQINVSHEPVELPLTVKQVEGQWYLPAVEQLRLNQFFLAFVTGKEDTDQLTEALDTILTQAEQKVVTADERTAIAGN | not soluble |
| EQEMVQVFIPAQAVGAIIGKKGQHIKQLSRFASASIKIAPPETPDSKVRMVIITGPPEAQFKAQGRIYGKLKEENFFGPKEEVKLETHIRVPASAAGRVIGKGGKTVNELQNLTAAEVVVPRDQTPDENDQVIVKIIGHFYASQMAQRKIRDILAQVKQQHQK | soluble |
| PRGSHMAEYLRLPHSLAMIRLCNPPVNAVSPTVIREVRNGLQKAGSDHTVKAIVICGANGNFCAGADIHGFSAFTPGLALGSLVDEIQRYQKPVLAAIQGVALGGGLELALGCHYRIANAKARVGLPEVTLGILPGARGTQLLPRVVGVPVALDLITSGKYLSADEALRLGILDAVVKSDPVEEAIKFAQKIIDKPIEPRRIFNKPVPSLPNMDSVFAEAIAKVRKQYPGVLAPETCVRSIQASVKHPYEVGIKEEEKLFMYLRASGQAKALQYAFFAEKSANKWSTPSGASWKTASAQPVSSVGVLGLGTMGRGIAISFARVGISVVAVESDPKQLDAAKKIITFTLEKEASRAHQNGQASAKPKLRFSSSTKELSTVDLVVEAVFEDMNLKKKVFAELSALCKPGAFLCTNTSALNVDDIASSTDRPQLVIGTHFFSPAHVMRLLEVIPSRYSSPTTIATVMSLSKKIGKIGVVVGNCYGFVGNRMLAPYYNQGFFLLEEGSKPEDVDGVLEEFGFKMGPFRVSDLAGLDVGWKIRKGQGLTGPSLPPGTPVRKRGNSRYSPLGDMLCEAGRFGQKTGKGWYQYDKPLGRIHKPDPWLSTFLSQYREVHHIEQRTISKEEILERCLYSLINEAFRILEEGMAARPEHIDVIYLHGYGWPRHKGGPMFYAASVGLPTVLEKLQKYYRQNPDIPQLEPSDYLRRLVAQGSPPLKEWQSLAGPHGSKL | soluble |
| MGSDKIHHHHHHMTGDATPPVGLRFAQDKTHEVFMKRYRHTQILALLETRSAIRATEAAEMLGVSVGTIRRDMAELEAGGYLNRTHGGAFAAIEGEAGFMRRTCWNRDKKRVIGQAAAAHISSGSVVFIDGGTTPEAMLPFLVEKTSLTVVTCGLNIALQLLRWPYISTILLGGEVHAESRTVTGTLPVTQLDSFGMRFDMAVIATAGISAEHGATNRMLERLALKQLVLRNSASSILVGDSSKVNCAFLGRVAPLSAFSLCIMDDDLTDEQKAKLSEAGRFEFVPLEGSRRR | not soluble |
| MGSDKIHHHHHHMTINQEHLTDCKLCKAHSWELVATLISGIWDKRHDELNREELRFPIGQCTKCHHVQVAIPYTQSIFDSLYFSNQAEPDMWCETPNGQKSPYEEMLEFIAPYIQDGAHIVDFGAGAGTTLKHIENTHKERQLTLASVDFHNHIQSETIEYLSADLNKLEALQAEFVTQPISLAISTHVLEHLIDPIHFLTQIRSMLSDDGHIFIEVPDCSPDAFIEHLAFTNLVHGQHIHYYSKDSLAQIARLAGLKIDALQQLTTGDIPRLLILLSKTTQESSTTVLPVTSGADVAVVKRFNDYHAFQDSLFKQIQQALMLNDTIGIWGIGGDFYQLTQSYPELIDLIQANSIILYDYELAGHTYVGSSIRCSSAIASTRYPVFMLPLYAPTREKMHQVSQSWSAQVIDPF | not soluble |
| MVWLANPERYGQMQYRYCGKSGLRLPALSLGLWHNFGHVNALESQRAILRKAFDLGITHFDLANNYGPPPGSAEENFGRLLREDFAAYRDELIISTKAGYDMWPGPYGSGGSRKYLLASLDQSLKRMGLEYVDIFYSHRVDENTPMEETASALAHAVQSGKALYVGISSYSPERTQKMVELLREWKIPLLIHQPSYNLLNRWVDKSGLLDTLQNNGVGCIAFTPLAQGLLTGKYLNGIPQDSRMHREGNKVRGLTPKMLTEANLNSLRLLNEMAQQRGQSMAQMALSWLLKDDRVTSVLIGASRAEQLEENVQALNNLTFSTKELAQIDQHIADGELNLWQASSDK | soluble |
| GMPKLDLDSIERRIGSVYPGRLNAAMDGRSSLRLGDAGGLSQFGVNLVRLEPGAKSSLRHYHMEQDEFVMVTEGALVLVDDQGEHPMVPGDCAAFPAGDPNGHQFVNRTDAPATFLVVGTRTPTETAYYSDMDMMVKQDASGFAFTRKDGSPLTADQIGDDNE | soluble |
| SGCGGSRADAIEPRYYESWTRETESTWLTYTDSDAPPSAAAPDSGPEAGGLHSGMLEDGLPSNGVPRSTAPGGIPNPEKKTNCETQCPNPQSLSSGPLTQKQNGLQTTEAKRDAKRMPAKEVTINVTDSIQQMDRSRRITKNCVN | soluble |
| MSLGYKCVYMLSEIKEYLKNTVLFAFDFETSPRDKWRNDKSAALDAHKADITGISFSVSEGTAIYVPLKHRSGRNAENQAAIWDYLKLLFESKDVIKVAHNLAFESMFLYARGIVLQKPCYDTIAASQLTLKSKWEFRSLADSGLKTLAPALCKAEMTEFSTVTEGRFFDELNPQDEKTVRYACADSDYTLRLYHVFNQWFDRFLPKHRTIVEEVESPTSVYVGIMKYNGILVDKSAMLKKQAEAAEKIVSIRKEIAGIIGNVEIGANASTSAFKKYLFVDLGLPVMKTTAKHQEAADDETMILLKEWCATNRPELVRLFELVQEYRKWGKLKSTYIDGYLRFIDEDTGRIHPDLMPLGTETGRFASRNPNMQNCPQKDNDPIGVRKFIIAPAGKVLLSLDFSQIELRVGAFYCRDKRMLETYRTGGDIHAQTTSVIYRIPFEEAADKNAPHYKERRTIAKNCNFGVFYGLFPTGLQRTLKFKAGINPTLAECETIIQNLKSGYPGLAKWQDEVKKRAAVSCYSETWLGRRRYLLGIRSSDWGKKSFAERCALNTPIQGTAADILKLACGRIISGLPERLWLKPMLQIHDELVFELPEDKVDEAVVFIKECMETQPFPAFDVPIVAEASVGRNFGEMKEMEEGHHHHHH | soluble |
